Results on 1 molecule are retold here after PMC12442453.

This assay addresses T1, human EPOR, endogenous on TF-1 cells (human (endogenous in TF-1)) (UniProt P19235).
T1 sequence: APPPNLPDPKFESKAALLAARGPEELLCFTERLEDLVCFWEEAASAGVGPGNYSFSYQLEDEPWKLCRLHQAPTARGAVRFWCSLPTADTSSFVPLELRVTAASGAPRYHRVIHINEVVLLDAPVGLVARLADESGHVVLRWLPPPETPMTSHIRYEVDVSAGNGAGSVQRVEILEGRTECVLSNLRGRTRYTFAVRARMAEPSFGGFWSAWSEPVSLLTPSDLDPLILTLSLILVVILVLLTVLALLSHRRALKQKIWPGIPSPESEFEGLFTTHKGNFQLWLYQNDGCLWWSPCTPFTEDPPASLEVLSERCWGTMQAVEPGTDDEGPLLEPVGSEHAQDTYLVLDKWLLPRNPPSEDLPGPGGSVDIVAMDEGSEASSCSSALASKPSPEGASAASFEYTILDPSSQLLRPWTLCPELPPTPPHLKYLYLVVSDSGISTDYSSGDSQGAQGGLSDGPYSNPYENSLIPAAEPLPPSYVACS

B1: Db-Fc 1.3 (Fc fusion)
VH: EVQLVESGGGLVQPGGSLRLSCAASGFNLRSYYMHWVRQAPGKGLEWVASISPHYGYTYYADSVKGRFTISADTSKNTAYLQMNSLRAEDTAVYYCARHGYSAMDYWGQGTLVTVSS
VL: DIQMTQSPSSLSASVGDRVTITCRASQSVSSAVAWYQQKPGKAPKLLIYSASSLYSGVPSRFSGSRSGTDFTLTISSLQPEDFATYYCQQSSDSLFTFGQGTKVEIK
Regarding B1, the UT-7/Epo cell proliferation, EC50; Tb-Fc2 fraction of variant 1.3 (putative tetramer) was 2 nM and the UT-7/Epo cell proliferation, maximum response; Tb-Fc2 fraction of variant 1.3 (putative tetramer) amounted to 2.2e+06 RLU.
